# Reference: patent publication US9504759B2, “Surface modified proteinaceous spherical particles and uses thereof” (BAR-ILAN UNIVERSITY, priority 2011, dated 2016)
# Square brackets hold non-standard residues; d marks the D form. Ends that are not written are not given here. Peptide text beside a SMILES is read from it. Nle = CCCC[C@H](N)C(=O)O
# Experiments:
# PC12 cells = experiment: Reduction of Aβ-induced toxicity in PC12 cells (MTT assay); format: cell-based, rat; settings: for effect on toxicity of aggregated Aβ in PC12 cells (cell viability, MTT): agent:Aβ40 4:1 (2 nmol : 0.5 nmol), aged 48 hours, cells 24 hours, FIG. 2B
# Description: Prior to the addition of the SMOPs or soluble peptides to the cells, the extent of Aβ40 aggregation in each sample was determined by ThT assay as described above. On the day of the experiment, the medium was replaced with fresh medium (50 μl) and the aged samples (50 μ) were then diluted by a factor of two in the medium. Control wells received PBS (50 μl) only. Cells were incubated for an additional 24 hours and cell viability was then determined by the MTT assay as described above. Each experiment was performed in quadruplicate and repeated three times.
# Aβ40 [1] = biological target: T1, Aβ40 (Homo sapiens, UniProt P05067); format: biochemical; settings: for effect on rate (kinetics) of Aβ aggregation: ThT assay monitored for three days of incubation; for effect on Aβ aggregation (ThT fluorescence): molar ratio of Aβ to peptide or peptide equivalent 1:2, 1:4, 1:6.5, SMOP BSA:KLVFF 1:500, three days, FIG. 2A
# T1 construct: incubating fresh monomerized (non-aggregated) solutions of Aβ40
# Description: In addition, an indirect assay (ThT [Thioflavin T] assay) was performed as follows. […] The fluorescence is measured and correlated to presence of amyloid plaque formations. Agents which bind and inhibit amyloid plaque formation decrease fluorescence of ThT. The inhibitory activity of KLVFF (SEQ ID NO 1)-modified SMOPs on Aβ40 aggregation was determined in black 96-well flat-bottom plates by incubating fresh monomerized (non-aggregated) solutions of Aβ40 (33 micromolar (μM), 15 μl)with different preparations of the SMOPs (25 μl, Table 1) in PBS. PBS was added to reach a volume of 50 μl, giving a final concentration of 10 μM for Aβ40. […] The plates were sealed with aluminum foil and incubated while shaking at 750 rpm at 37° C. for 72 hours to induce aggregation. Following the incubation, a solution of ThT (24 μM, 150 μl) in glycine buffer (50 millimolar (mM), pH 8.5) was added to each well and the fluorescence of amyloid-bound ThT was immediately measured using a plate reader (Infinite M200, Tecan, Switzerland) at excitation and emission wavelengths of 430 and 492 nm, respectively. The ThT solution was freshly prepared by diluting a ThT stock solution (1 mM, in water) with glycine buffer (50 mM, pH 8.5). Experiments were performed in quadruplicate.
# To evaluate the inhibitory effect of KLVFF (SEQ ID NO 1)-modified SMOPs on Aβ aggregation and kinetics, soluble Aβ40 (0.5 nanomol, nmol) was incubated in the absence and presence of different preparations of the SMOPs. Amyloid plaque formation was then monitored by a ThT assay for three days of incubation.
# Aβ40 [2] = biological target: T1, Aβ40; experiment: TEM analysis of samples taken from the ThT assay; format: biochemical; settings: 72 hour incubation
# FITC-Aβ40 = biological target: T2, FITC-Aβ40 (Homo sapiens, UniProt P05067); experiment: Direct in vitro binding assay with FITC-Aβ40 (fluorescent microscopy, FACS); settings: soluble FITC-Aβ40 in PBS at 37° C., after extensive washing; fluorescent microscopy and FACS
# T2 construct: incubated with soluble FITC-Aβ40
# Description: Binding of KLVFF (SEQ ID NO 1)-modified SMOP to Aβ was assessed using a fluorescent modified Aβ known as FITC-Aβ40 (fluorescein isothiocyanate) in a direct in vitro assay. In order to confirm that the conjugated KLVFF (SEQ ID NO 1) fragments on SMOPs preserved their recognition capability to bind full length Aβ following the sonochemical process and SMOP generation, KLVFF (SEQ ID NO 1)-modified SMOPs were incubated with soluble FITC-Aβ40 (25 μ, 0.5 nanomolar, nM) in PBS at 37° C. for different periods under constant agitation (750 revolutions per minute (rpm)). At each time point, samples were diluted with cold PBS and the microspheres were washed twice with cold PBS. Ten thousand particles were then analyzed immediately by FACS.
# As controls, proteinaceous SMOP without surface modification (prepared as in example 1A, without the addition of a KLVFF (SEQ ID NO 1) peptide) (naked BSA spheres) were prepared. FVKLF-modified SMOP was also prepared as a control, as in Example 1C.
# [3] = Administration of SMOP to rats to demonstrate safety; format: in vivo; settings: intravenously via tail vein, from 100 μl to highest amount 200 µL, observed 2 weeks; BSA:KLVFF 1:500
# Description: SMOPs modified with KLVFF (SEQ ID NO 1) (ratio of BSA:KLVFF (SEQ ID NO 1) of 1:500) were used in vivo for toxicological studies. Rats weighing about 250 g each were injected intravenously, via their tail vein, with increasing amounts of the SMOP starting from 100 μl and following an up-down protocol based on the outcome of the initial dose.
# [4] = tested on: murine microglia (BV-2) cells; experiment: Phagocytosis by murine microglia (BV-2) cells (confocal microscopy, SEM, FACS); format: cell-based; settings: LPS-treated cells, 30 minutes exposure
# T1 sequence (P05067 672-711 limits assumed): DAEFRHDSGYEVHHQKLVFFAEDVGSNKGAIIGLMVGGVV
# T2 sequence (P05067 672-711 limits assumed): as above
Compound,effect on rate (kinetics) of Aβ aggregation (Aβ40 [1]),effect on Aβ aggregation (ThT fluorescence) (Aβ40 [1]),formation of Aβ40 fibrils (TEM) (Aβ40 [2]),FITC-Aβ40 accumulated on the surface of the particles (fluorescent signal) (FITC-Aβ40),"effect on toxicity of aggregated Aβ in PC12 cells (cell viability, MTT) (PC12 cells)",effect on uptake of aggregated FITC-Aβ by BV-2 cells [4],other results
"CCCC[C@@H]1NC(=O)[C@@H](CC(C)C)NC(=O)[C@H](CCCCN)NC(=O)[C@@H](CO)NC(=O)[C@H](Cc2c[nH]cn2)NC(=O)[C@@H](Cc2c[nH]c3ccccc23)NC1=O [[lJwHsK], Cyclo-D-leucine-L-noreucine-D-tryptophan-L-histidine-D-serine-L-lysine] (cyclo(K[dL][Nle][dW]H[dS]))",,,,,,,reduction of Aβ-induced toxicity in PC12 cells (cyclic peptide) (PC12 cells): effective in reducing Aβ-induced toxicity; effect on amyloid aggregation / formation (in words) (Aβ40 [1]): drastic effect on amyloid aggregation
FVKLF-modified SMOPs: SMOPs formed with scrambled peptide FVKLFC-NH2 (SEQ ID NO 4); comparator in in vitro studies,no or little effect,no or little effect,no inhibitory effect,significantly lower amount of FITC-Aβ40 was accumulated,,,
KLVFF-NH2,,,,,little or no effect on toxicity,,
"KLVFF-modified SMOP: oil-filled spherical BSA particles with KLVFFC-NH2 (SEQ ID NO 3) attached via disulfide bonds, prepared by sonication",dramatically slowed the rate of Aβ aggregation,significantly decreased the aggregation of Aβ in a dose-dependent manner,completely arrests the formation of fibrils,intense fluorescent signals,significantly reduced,,immediate toxicity in rats [3]: did not cause immediate toxicity
fucoidan,,,,,,reduced the uptake of the aggregated Aβ,
pertussis toxin [PTX],,,,,,reduced the uptake of the aggregated Aβ,
